Data set [1] deals with T1, poly-histidine tagged apo-SOD1^WT (human, UniProt P00441 1-154).
T1 construct: Cu/Zn superoxide dismutase (SOD1), human, wild type, codon-optimised, in the pHIS1 vector; Apo form; It was captured on the tris-NTA chip by its His tag; also called Cu/Zn superoxide dismutase; source: E. coli BL21, purified (HisTrap FF); not shown: His6, N-terminal, kept
The data set is described as follows: SPR; ProteOn XPR36; poly-histidine tagged apo-SOD1^WT (1 µg, 736 RU) immobilised on tris-NTA HTG chip; MIF as analyte, 31-1000 nM, 25 µl/min; PBST (PBS 300 mM NaCl, 0.05% Tween-20); 25 °C; HTB1 channel subtracted; apparent affinity from steady-state values. To be noted: both partners purified.

Data set [2] concerns the molecule itself. The data set is described as follows: SDS-PAGE without prior crosslinking; 10 µM recombinant MIF, non-crosslinked control; sample buffer without β-mercaptoethanol; 13% SDS-PAGE and anti-MIF immunoblot. For orientation: A western blot detects proteins with antibodies after separation by electrophoresis.

Usually stoichiometry N stands for the number of molecules, sites or subunits per partner or assembly.

T1 sequence (P00441 whole entry): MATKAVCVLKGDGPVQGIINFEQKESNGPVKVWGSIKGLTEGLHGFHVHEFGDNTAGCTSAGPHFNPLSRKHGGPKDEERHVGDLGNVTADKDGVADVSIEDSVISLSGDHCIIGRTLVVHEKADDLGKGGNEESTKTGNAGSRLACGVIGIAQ

B1: macrophage migration inhibitory factor, wild type (MIF^WT) (natural protein, human, UniProt P14174 1-115, looked up)
chain: MPMFIVNTNVPRASVPDGFLSELTQQLAQATGKPPQYIAVHVVPDQLMAFGGSSEPCALCSLHSIGKIGGAQNRSYSKLLCGLLAERLRISPDRVYINYYDMNAANVGWNNSTFA
notes: No tag is mentioned; Surmise: the initiator methionine is removed in E. coli, since tautomerase activity was measured; also called recombinant MIF; hMIF; source: E. coli BL21 (DE3), purified (Capto Q anion exchange, Capto S cation exchange)
As for B1, in data set [1], the Kd worked out at 1300 nM.

B2: locked-trimeric MIF mutant MIF^N110C (natural protein)
chain: PMFIVNTNVPRASVPDGFLSELTQQLAQATGKPPQYIAVHVVPDQLMAFGGSSEPCALCSLHSIGKIGGAQNRSYSKLLCGLLAERLRISPDRVYINYYDMNAANVGWNCSTFA
modifications: disulfide bridge of the introduced cysteine (N110C) with Cys-81 of an adjacent subunit
With B2, the “stoichiometry N” value in data set [2] is 3. In data set [1], the Kd came out at 548 nM.

Source of the values: publication PMC5833700, “MIF inhibits the formation and toxicity of misfolded SOD1 amyloid aggregates: implications for familial ALS” (Cell Death & Disease, 2018).
